The values that follow come from PMC4051121.

For this assay, the target named is GltPh-K55C-A364C cross-linked with mercury (Pyrococcus horikoshii) (UniProt O59010). The assay can be described thus: crystal structure; GltPh^in crystals grown at 4°C in 14–20% PEG 400, 0.1 M potassium citrate pH 5.0–6.0, with lipids and n-decyl-α-D-maltopyranoside; soaked in Tl+ or alkali-free solutions; trimer with three protomers.

In the case of “GltPh-K55C-A364C cross-linked with mercury (from UniProt O59010 1-425) (natural protein)”, the stoichiometry N (as a rule, the number of molecules, sites or subunits per partner or assembly) was 3.
